Ends that are not written are not given here.

As a reminder, the Kd is a measure of binding affinity in units of concentration. Read a high Kd as a looser complex.

Assay [1] has as its target serpin enzyme complex receptor (SEC-R) on human hepatoma cell lines (human). Briefly: 125I-C105Y saturation binding on HuH7 cells, Scatchard analysis.
For assay [2] the target is unchanged. In words: 125I-C105Y saturation binding on HepG2 (low) cells, Scatchard analysis.
For assay [3] the target is unchanged. In words: 125I-C105Y specific binding on cells.
Assay [4] has the same target. Briefly: 125I-C105Y saturation binding on HepG2 (high) cells, Scatchard analysis.
For assay [5] the target is unchanged. Briefly: fluorescence microscopy of HuH7 cells with 100 nM fluorescein labeled peptide at 4 C; cells per 100 counted.
For assay [6] the target is unchanged. In words: fluorescence microscopy of HepG2(high) cells with 100 nM fluorescein labeled peptide at 4 C; cells per 100 counted.
Assay [7] shares this target. In words: fluorescence microscopy of HepG2(low) cells with 100 nM fluorescein labeled peptide at 4 C; cells per 100 counted.

For CSIPPEVKFNKPFVYLI (also: radio-iodinated with 125I, site not given here) [Peptide C105Y], the Kd was found to be 70 nM in assay [1], 22.5 nM in assay [2] and 50 nM in assay [4]. The same molecule displayed a fold less specific binding, HepG2 (low) against HepG2 (high) in assay [3] of 7.5 fold. The molecule also came in with a fold less specific binding, HepG2 (low) against HuH7 in assay [3] of 10 fold. Also, the fold more C105Y bound, HuH7 against HepG2 (high) in assay [3] was 1.5 fold.
As for CFLEAIPMSIPPEVKFNKPFVFLIIHRD (also: labelled with fluorescein isothiocyanate, site not given here) [fluorescein labeled C1315 peptide], the Average % Fluorescent Cells in assay [5] was 14.3%; in assay [6], 20.4%; in assay [7], 1.8%.
